From patent publication US20150086555A1 (THERACLONE SCIENCES, published 2015)

B1: TCN-535 (5246_P19) (antibody, V domains shown)
VH: QVQLVQSGSEVKKPGTSVKVSCTASGSVFTNYGISWVRQAPGQGLEWMGGIIPLFGAAKYAQKFQGRVTITADESTKTVYMELSRLTSKDTAIYFCAKAPRVYEYYFDQWGQGTPVTVSS
VL: EIVLTQSPGTLSLSPGERATLSCRASQSVSSSQLAWYQQKPGQAPRLIIYGASTRATGIPDRFSGSGSGTDFTLTIGRLEPEDFAVFFCQQYSTSPPTFGQGTKVDFK
B2: TCN-534 (5249_B02) (antibody, V domains shown)
VH: QVQLVQSGAEVKKPGSSVKVSCRESGGTFNGYTITWVRQAPGQGLEWMGGIIPMMGTVNYAQKLQGRVTITTDYFTKTAYMDLNNLRSEDTAMYYCVKIRYTGQQLLWGQGTLVTVSS
VL: DIQMTQSPSTLSASIGDRVTITCRASQSIASWLAWYQQKPGKAPKLLIYEAVNLESGVPSRFSGSGSGTDFTLTISSLQPDDFATYFCQHYGTISQTFGGGTKVEIK
B3: TCN-536 (5095_N01) (antibody, V domains shown)
VH: QVQLQQWGAGLLKPSETLSLTCAVYGGSFSVSGYYWSWIRQPPGRGLEWIGEISHGGSTNYNPSLKSRVTISVDTTKNQFSLRLSSVTAADTAVYYCARGTDPDTEVYCRVGNCAAFDYWGQGSLVTVSS
VL: EIILAQSPGTLSLSPGERATLSCRASQFVSTRSLAWYQQRPGQAPRLLIYGASSRATGIPDRFSGSGSGTDFTLTISRLEPEDFAVYYCQHYGYSPRYAFGQGSKVEIK
B4: TCN-504 (3251_K17) (antibody, V domains shown)
VH: QVQLQESGPGLVKPSETLSLTCAVSGVSISNIDFYWGWIRQPPGKGLEWIGNIYYTGITFYNPSLSSRVAISIDTSKNQFSLTLTSVTAADTAMYYCARHYGDSEAINDAFDIWGQGTMLTVSS
VL: EIVMTQSPATLSVSPGERATLSCRASQSVGNSLAWYQQRPGQAPRLLIYGASTRATGIPPRFSGSGSGTEFTLTISSLQTEDFAVYYCQQYINWRPLSFGGGTKVEIK
B5: TCN-537 (3194_D21) (antibody, V domains shown)
VH: QVQLQQWGSGLLKPSETLSLTCAVYGGSFRDDYWTWIRQPPGKGLEWIGEINHSGRTNYNPSLKSRVTISVDTSLKQFSLKVISVTAADTAVYYCARGTSHVSRYFDWLPPTNWFDPWGQGTQVTVSS
VL: DIVLTQSPGTLSLSPGERATLSCRASQSVSSSYLAWYQQKPGQAPRLVMYGAATRATGIPDRFSGSGSGPDFTLTISRLEPEDFAMYYCQQYGNSPITFGQGTRLEIK
B6: TCN-538 (3206_O17) (antibody, V domains shown)
VH: QITLKESGPTLVKPTQTLTLTCVFSGFSLSITGVRVGWIRQPPGKALEWLALISWDDEKHYSPSLQSRLTITKDTSKNQVVLTMTNLDPVDTATYYCARSTDRGHVLRYFGWMLPGDAFDVWGQGTMVTVSS
VL: DIVMTQSPDFLPVSLGERATINCKSSQRVLYSSNNKNYLAWYQLKPGQPPKLIIYWASTRESGVPDRFSGSGSGTEFTLTISSLQAEDVAVYYCQQYYSRPYTFGQGTKLEIK
B7: TCN-539 (5056_A08) (antibody, V domains shown)
VH: QVQLVESGGGVVQPGRSLRLSCAASEITFITYAMHWVRQAPGKGLEWVALISDDGSNKFYADSVKGRFTISRDNSKNTLYLQMNSLRAEDTAAYYCAREGVYFDSGTYRGYFDYWGQETLVTVSS
VL: EIVLTQSPATLSLSPGERATLSCRASQSVSSYLAWYQQKPGQAPRLLIYDASNRATGIPARFSGSGSGTDFTLTISSLEPEDFAVYYCQQRSHWPPITFGQGTRLEIK
B8: TCN-540 (5060_F05) (antibody, V domains shown)
VH: QVQLVQSGGGVVQPGRSLRLSCAASGFTFSSYAMHWVRQAPGKGLEWVAIISYDGNDQYYTDSVKGRFTISRDSSKVYLQMHRLRPEDTAVYYCAKEFETSGYFHGSFDYWGQGILVTVSS
VL: QSALTQPASVSGSPGQSITISCTGTSSDVGGYNYVSWYQQHPGKAPKLLIYEVTNWPSGVSNRFSGSKSGNTASLTISGLQAEDEADYYCSSYAGSSTWVFGGGTRVTVL
B9: TCN-542 (5079_A16) (antibody, V domains shown)
VH: QVQLQESGPGLVKPSQTLSLTCTVSGGSISSGNYYWNWVRQHPGKGLEWIGYIYYRGSTFYNPSLKSRVTISIDTSKNQFSLRLSSVTAADTAVYYCAKDTRSSLDNYQYGMDVWGQGTTVTVSS
VL: QTVVTQEPSLTVSPGGTVTLTCASSTGAVTSSYFPNWFQQKPGQAPRPLIYSTTIRHSWTPARFSGSLLGGKAALTLSGVQPEDEADYYCLLYSGGDPVAFGGGTKLTVL
B10: TCN-543 (5081_G23) (antibody, V domains shown)
VH: QVHLVQSGAEVRKPGDSVKVSCKTSGYTFSTYPVAWVRQVPGQGLEWMGWISTYNGNTNFAQNFQGRVTLTTDTTTNTAYMEVRSLKFDDTAVYYCARVEGSYRDFWNNQNRFDPWGQGTLVTVSS
VL: SYVLTQPPSVSVAPGQTARISCGGSNIGGKSVHWYQQKPGQAPVLVVYDDSGRPSGIPERFSGSNSGDTATLTISRVEAGDEADYFCQVWDNFGGVFGTGTKVTVL
B11: TCN-544 (5082_A19) (antibody, V domains shown)
VH: QVQLQESGPGLVKPSETLSLTCTVSRGSIGHYFWSWIRQPPGKGLEWIGYISYSGSTKYNPSLRSRVTISVDTSKNQFSLNLNSVTATDTALYYCAREDYDILTGAGPGMEVWGQGTTVTVSS
VL: QSMLTQPPSASGTPGQRVTISCSGSSSNIGSNTVNWFKHLPGTAPKLLIYRNDLRPSGVPDRFSGSKSGTSASLAISGLQSEDEADYYCATWDDSLNGFYVFGTGTKVTVL
B12: TCN-545 (5082_I15) (antibody, V domains shown)
VH: QVQLQQWGAGLLKPSETLSLSCAVFGGSFSDYYWTWIRQPPGKGLEWIGEIKHSGRTNYNPSLESRVTISVDTSKNQFSLKLSSVTAADTAIYYCARGTDPDTEGYCRSGSCSAFDFWGQGTLVTVSS
VL: EIVLTQSPGTLSLSPGERATLSCRASHFVNYRSLAWYQQTPGQVPRLLIYGASTRATGIPDRFSGSGSGTDFTLTISRLEPEDFAVYFCQQYGGSPRYTFGQGTRLEIK
B13: TCN-546 (5089_L08) (antibody, V domains shown)
VH: QVQLQQWGAGLLKPSETLSLTCGVYGGSLSDYYWSWIRQPPGKGLEWIGEINHSGGTNYNPSLKRRVTISVDTSKKQFSLKMNSVTAADTAVYYCARGTDPDTEVYCRAGNCAAFDFWGQGTLVTVSS
VL: EIVLTQSPGTLSLSPGERATLSCRASHFVIGRAVAWYQQKPGQAPRLLIYGASSRATGIPDRFSGSGSGTDFTLTISRLETEDFAVFYCQHYGSSPRYAFGQGTKLEIK
B14: TCN-523 (5248_A17) (antibody, V domains shown)
VH: QVQLVQSGAEVKKPGSSVKVSCKASGGSFSNYAFSWVRQAPGQGLEWMGGTIPLLGTTNYAQKFQGRVTISADQFTSTAYMELGSLRSEDTAVYYCTRRKMTTAFDSWGQGTLVTVSS
VL: QPVLTQPPSASASLGASVTLTCTLSSAYSNYKVDWYQQRPGKGPRFVMRVGTGGIVGSKGDGIPDRFSVLGSGLNRYLTIKNIQEEDESDYHCGADHGSGSNFVSPYVFGGGTKLTVL
B15: TCN-547 (5092_F11) (antibody, V domains shown)
VH: QVQLQESGPGLVKPSQTLSLTCTVSGDSISSVDHYWSWIRQHPVKGLEWIGFMYYSASTYYNPSLKSRVTISTDTSKNQFSLRLSSVTAADTAVYYCARGTCAGDCSLHYYYYGLDVWGQGRTVTVSS
VL: DIQMTQSPSSLSASVGDRVTITCRASQSISSYLNWYQHKPGKAPKVLMYAVSILQSGVPSRFSGSGSGADFTLTISSLQPEDFATYYCQQSYSSPLTFGGGTKVEIK
B16: TCN-548 (5092_P01) (antibody, V domains shown)
VH: QVQLQESGPGLVKPSETLSLTCTVSSGPMSDYYWSWIRQPPGKGLEWIGHVSVSHGGRTKSNPSVMSRVTISVETSKNQFSLKLTSVTAADTAVYYCARLNYYDRSGYHSPDGPSNNWFDPWGQGTLVTVSS
VL: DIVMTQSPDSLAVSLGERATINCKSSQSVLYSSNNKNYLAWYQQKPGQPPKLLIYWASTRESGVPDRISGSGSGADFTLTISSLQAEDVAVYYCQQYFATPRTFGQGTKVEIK
B17: TCN-549 (5092_P04) (antibody, V domains shown)
VH: QVQLVQSGAEVKKPGASVKVSCKASGYTFTGYYMHWVRQAPGQGLEWMGWINPNSGDTNYAQKFQGRVTMTRDTSITTAYMELSSLRSDDTAVYYCARDSPYSSSWSFFDYWGQGPLVTVSS
VL: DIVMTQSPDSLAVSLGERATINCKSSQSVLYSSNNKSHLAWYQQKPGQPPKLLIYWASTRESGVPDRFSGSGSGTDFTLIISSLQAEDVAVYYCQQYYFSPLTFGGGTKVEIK
B18: TCN-550 (5096_F06) (antibody, V domains shown)
VH: QVQLQESGPGLVKPSETLSLTCTVSGASINSHYWSWIRQPPGKGLEWIGYVYYSGSTTYNPSLKSRVTLSVDTSKNQFSLNLSSVTAADTAFYYCARHPYDVLTGSGDWFDPWGQGTLVTVSS
VL: SYVLTQAPSVSVAPGQTARITCGGNAIGSKKVHWYQHKAGQAPVLVVYDDTDRPSGIPERFSGSNSWSTATLTINRVEAGDEADYYCQVWDFTIDHVVFGGGTKLTVL
B19: TCN-552 (5249_I23) (antibody, V domains shown)
VH: QVQVVQSGAEVKKPGSSVRVSCQASGGTFMNYAIIWVRRAPGQGLEWMGGIIPVFPTPNYAQMFQGRVTISTDESRSTSFLELTNLRYEDTAVYYCARRIYHGGNSGFDFWGQGTLVTVSS
VL: EIVLTQSPATLSLSPGERATLSCRASQSVGNYLAWYQQKPGQAPRLLIYDSSNRAPGIPARFSGSGSGTDFTLTISSLAPEDFAVYYCQQRSKWPPMYSFGHGTKLEIK
B20: TCN-553 (5261_C18) (antibody, V domains shown)
VH: QVQVVQSGTEVKKPGSSVKVSCQTSGGRFMSYAITWVRQAPGQGLEWMGGIVPVFGTANYAQKFQGRVTITTDDSTRTAYMELSSLRSEDTAVYYCGFRYGSGYGFDSWGQGTLVTVSS
VL: EIVLTQSPGTLSLSPGERATLSCRASQSVSSSYLAWYQKKPGQAPRLLIYGASTRATGIPDRFTGSGSGTDFTLSISRLEPEDFAVYYCQHFGTSVFTFGGGTKVEIK
B21: TCN-556 (5089_K12) (antibody, V domains shown)
VH: QVQLVQSGAEVKKPGASVKVSCKASGYTFIGYDMHWVRQAPGQGLEWMGWINAKRGGTNYAQKFQGRVTMTRDTSISTAYMELNSLRSDDTAVYYCARGVGSRTTIFGVLNPEFDYWGQGTLVTVSS
VL: QSALTQPPSASGSPGQSVTISCTGSSSDVGGYDYVSWYQQHPGKAPKLLIYEVTKRPSGVPDRFSGSKSGNTASLTVSGLQAEDEADYYCSSYAGNYNHVFGPGTKVTVL
B22: TCN-557 (5081_A04) (antibody, V domains shown)
VH: QVQLVQSGAEVKKPGASVKVSCKASGHTFTGYYIHWVRQAPGQGLEWMGWINPDSGATSSAQNFQGRVTMTGDTSSSTAYMELSRLSFDDTAVYYCARVLFTSPFDFWGEGTLVTVSS
VL: QAVVTQEPSLAVSPGGTVTLTCGSSTGAVTRGHYPYWFQQKPGQAPRALIYDSAGNRHSWTPARFSGSLLGGKAALTLSGAQPEDEAEYYCLLSYSGVWVFGGGTKLTVL

Legend:
[1] = target: hemagglutinin on live influenza A virus, A/California/4/09 H1N1 (Influenza A virus …); test: cell-based or functional assay
[2] = target: hemagglutinin (HA) of influenza A/Japan/305/57 (H2N2) on whole virions (Influenza A virus A/Japan/305/1957(H2N2), UniProt P03451 16-562); test: ELISA; BCC supernatant on coated inactivated whole virions

Row | Binder | % Neutralization [1] | ELISA virus binding (OD450) [2]
1 | B1 | 97.3% | 
2 | B2 | 96.4% | 
3 | B3 | 18.8% | 
4 | B4 | 0% | 
5 | B5 | 71% | 
6 | B6 | 66% | 
7 | B7 | 0% | 
8 | B8 | 0% | 
9 | B9 |  | 0.08 OD450
10 | B10 |  | 3.62 OD450
11 | B11 |  | 0.07 OD450
12 | B12 |  | 0.06 OD450
13 | B13 |  | 0.06 OD450
14 | B14 |  | 1.62 OD450
15 | B15 |  | 0.07 OD450
16 | B16 |  | 0.09 OD450
17 | B17 |  | 0.08 OD450
18 | B18 |  | 0.06 OD450
19 | B19 |  | 0.71 OD450
20 | B20 |  | 2.54 OD450
21 | B21 |  | 2.41 OD450
22 | B22 |  | 2.7 OD450
